Test results taken from US20210309707A1 (Stanford University, published 2021).

Biological target: T1, interferon-gamma receptor subunit 2 (IFN-γR2) (UniProt P38484 28-247, limits assumed)
T1 construct: Soluble purified protein (crystallised; analyte in SPR)
T1 sequence (looked up): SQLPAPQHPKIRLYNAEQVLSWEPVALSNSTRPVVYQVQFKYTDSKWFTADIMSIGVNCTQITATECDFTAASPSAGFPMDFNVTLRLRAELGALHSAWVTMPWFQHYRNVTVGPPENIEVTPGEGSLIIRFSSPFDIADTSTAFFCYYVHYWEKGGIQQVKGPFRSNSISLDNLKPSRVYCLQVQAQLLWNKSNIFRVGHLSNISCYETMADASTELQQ
Assay: SPR (Biacore T100, equilibrium); IFN-γR2 dilutions over captured IFN-γR1 in the presence of 50 nM mutant IFN-γ
Experimental: The structure of the IFN-γ signaling complex as described in Example 2 above provided opportunities to address new questions to further understand IFN-γ signaling and activity. By identifying the shared interactions, previously unknown, at sites IIa/IIb, one now can better understand IFN-γ signaling at each step of complex formation. Since IFN-γ is a dimeric cytokine driving the dimerization of four receptors, further experiments were performed to design and generate variants of IFN-γ to affect one or more of the different signaling intermediates. The design of the partial agonists was achieved by first engineering a version of IFN-γ that abolished binding to IFN-γR2 receptor. Based on the structure described in Example 2, a triple IFN-γ mutant having three amino acid substitutions K74A, E75Y, and N83R (See FIG. 3A) was designed and validated for the loss of measurable binding to IFN-γR2 as determined by surface plasmon resonance (FIGS. 3B-3D). Without being bound to any particular theory, several other mutations or combinations thereof of the IFN-γR2 binding site amino acids of IFN-γ as indicated in the crystal structure (FIG. 2), either alone or in combination with mutations within the IFN-γR1 binding site, could also result in similar effects on IFN-γR2 binding. […]

B1: triple IFN-γ mutant having three amino acid substitutions K74A, E75Y, and N83R (ligand)
chain: QDPYVKEAENLKKYFNAGHSDVADNGTLFLGILKNWKEESDRKIMQSQIVSFYFKLFKNFKDDQSIQKSVETIAYDMNVKFFRSNKKKRDDFEKLTNYSVTDLNVQRKAIHELIQVMAELSPAAKTGKRKRSQ
notes: also called IFN-γ (K74A/E75Y/N75R); IFN-γK74A/E75Y/N83A
  binding result: no binding
